Assay results taken from patent US5352595, “Myod regulatory region” (Fred Hutchinson Cancer Research Center).

Target: MyoD:E12 heterodimer (UniProt P10085;P15806 P10085:1-318,P15806:1-651)
Test: EMSA

Chain of MyoD:E12 heterodimer (P10085 whole entry, chain 1 of 2): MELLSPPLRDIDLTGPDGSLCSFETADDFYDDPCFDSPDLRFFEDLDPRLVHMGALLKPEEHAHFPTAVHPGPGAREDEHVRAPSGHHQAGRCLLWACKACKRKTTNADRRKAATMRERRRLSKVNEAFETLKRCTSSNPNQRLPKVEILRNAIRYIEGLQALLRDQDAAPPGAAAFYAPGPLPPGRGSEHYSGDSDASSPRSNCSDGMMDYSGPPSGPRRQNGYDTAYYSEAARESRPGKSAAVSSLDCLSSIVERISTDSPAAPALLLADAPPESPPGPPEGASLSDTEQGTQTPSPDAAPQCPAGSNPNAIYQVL
Chain of MyoD:E12 heterodimer (P15806 whole entry, chain 2 of 2): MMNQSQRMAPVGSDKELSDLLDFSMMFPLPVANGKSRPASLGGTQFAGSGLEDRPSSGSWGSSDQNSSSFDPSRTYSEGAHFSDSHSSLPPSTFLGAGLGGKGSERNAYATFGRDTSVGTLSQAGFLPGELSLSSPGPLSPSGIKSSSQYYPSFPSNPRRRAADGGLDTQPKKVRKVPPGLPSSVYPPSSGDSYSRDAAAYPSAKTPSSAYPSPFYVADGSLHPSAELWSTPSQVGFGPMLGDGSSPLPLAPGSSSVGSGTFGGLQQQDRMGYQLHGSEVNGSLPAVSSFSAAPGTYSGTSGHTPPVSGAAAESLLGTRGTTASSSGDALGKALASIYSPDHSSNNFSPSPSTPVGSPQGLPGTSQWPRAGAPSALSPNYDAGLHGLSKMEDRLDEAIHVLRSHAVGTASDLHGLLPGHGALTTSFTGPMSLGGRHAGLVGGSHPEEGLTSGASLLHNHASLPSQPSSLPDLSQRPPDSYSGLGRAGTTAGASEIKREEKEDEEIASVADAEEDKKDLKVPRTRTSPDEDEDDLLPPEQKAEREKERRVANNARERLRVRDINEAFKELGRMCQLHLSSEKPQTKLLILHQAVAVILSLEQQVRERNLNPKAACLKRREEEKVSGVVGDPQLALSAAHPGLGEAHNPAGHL

B1: myoD PRR A site (-190) (dsDNA)
DNA 1: GGCAGCTGCC
DNA 2: GGCAGCTGCC
binding result: binds
